These results are taken from patent US20190360057.

This series deals with ErbB2 (UniProt P04626).

Turning to Src, the “Src activity (Src kinase assay, Src-Y416 phosphorylation) after trastuzumab treatment” value is listed as “trastuzumab inhibited Src activity in ErbB2 overexpressing cells”.
